The text below walks through data of paper doi:10.1101/2025.06.13.659407 (2025).

The term koff denotes a measure of how fast the partners let go of each other. The low end stands for slow dissociation, the high end for fast dissociation.

The target of this experiment is biotinylated preS1 peptide, residues 69–108 (hepatitis B virus (residues numbered …, C-terminal biotin)). The experiment is described as follows: BLI.

B1: sEGF4–6-hFc (soluble fusion protein comprising SCARF2's EGF4–6 domains, with an N-terminal HA tag an (Fc fusion)
chain: GSYPYDVPDYAGSSACYCSATSRCDPQTGACLCHAGWWGRSCNNQCACNSSPCEQQSGRCQCRERTFGARCDRYCQCFRGRCHPVDGTCACEPGYRGKYCR
In the case of B1, the koff was 0.000289 s⁻¹.
